This note sets out measurements from PMC9701214, “Orthogonal glycolytic pathway enables directed evolution of noncanonical cofactor oxidase” (Nature Communications, 2022).

The target of one data set is T1, XenA (Pseudomonas putida, UniProt Q9R9V9).
T1 construct: purified recombinant enzyme (plasmid pEK102 carries XenA WT)
In words: specific activity, absorbance at […] nm. The format is biochemical. The note with it: 0.2 mM reduced cofactor, 5 mM ketoisophorone, 200 mM potassium phosphate pH 7.5, 37 °C.

Substrate in data set [1]: NC(=O)C1=CN([C@@H]2O[C@H](COP(=O)(O)OP(=O)(O)OC[C@H]3O[C@@H](n4cnc5c(N)ncnc54)[C@H](O)[C@@H]3O)[C@@H](O)[C@H]2O)C=CC1
Kind of data set: purified protein. Format: biochemical, Lactiplantibacillus pentosus. The note with it: 50 mM Tris-HCl pH 7.0, 37 °C, apparent.

Substrate in data set [2]: NC(=O)C1=CN([C@@H]2O[C@H](COP(=O)(O)OP(=O)(O)OC[C@H]3O[C@@H](n4cnc5c(N)ncnc54)[C@H](OP(=O)(O)O)[C@@H]3O)[C@@H](O)[C@H]2O)C=CC1
In words: purified protein. Format: biochemical, Lactiplantibacillus pentosus. The note with it: 50 mM Tris-HCl pH 7.0, 37 °C, apparent.

T1 sequence (Q9R9V9 entry or part of it): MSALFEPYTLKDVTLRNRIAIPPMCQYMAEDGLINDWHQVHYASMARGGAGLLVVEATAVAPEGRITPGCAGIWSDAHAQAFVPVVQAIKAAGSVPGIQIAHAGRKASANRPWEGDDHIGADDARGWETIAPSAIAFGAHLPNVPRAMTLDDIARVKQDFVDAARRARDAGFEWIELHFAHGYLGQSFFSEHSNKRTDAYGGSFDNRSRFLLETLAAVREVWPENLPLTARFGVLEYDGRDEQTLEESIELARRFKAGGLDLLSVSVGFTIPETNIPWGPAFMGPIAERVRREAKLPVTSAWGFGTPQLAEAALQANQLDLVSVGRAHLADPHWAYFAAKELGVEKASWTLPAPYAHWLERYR

As for `NC(=O)C1=CN([C@@H]2O[C@H](COP(=O)(O)O)[C@@H](O)[C@H]2O)C=CC1` [NMNH], the “specific activity, absorbance at 340 nm” value on XenA is reported as “Specific activities of redox partners toward NMNH”.

B1: Lp Nox (Lactiplantibacillus pentosus; D177W/G178E/I158S/V240L) (protein)
chain: MKVIVIGCTHAGTAAVNQILASNPETDVTIYERNDNVSFLSCGIALYLGGEVADPQGLFYSSPEQLAKLGANVHMQHDVTDVDTENHEITVTDLKTGESKKDYYDKLVVTTGSWPVIPPIDGIDSPNVYLCKNWTHAQSLWEAAKPAKRVIVIGGGYSGTELVEAYQKQGKEVTLIWELPRILNKYLDKGFTDRVEKDFVDHGIKMALNQMVKGFSDDGKEVTVKTDKGSYTADMAILCLGFRPNTSLLKGKVDMNPNGSIKTNDYMQTSDPDIYGAGDSVAVHYNPTKKDAYIPLATNAVRQGTLVGLNIFKPTRKYMGTQSTSGLMLFGKTIVSSGMTLEHAQAEKVPAEAVTFEDNYRPEFMPTTKPVLMQLVYNPETREILGAQFMSEHDVSQSANVISVMIQNHNTIDDLGFVDMFFQPIYDRPFNYLNLLGQAAIAHAAEKVTE
notes: recombinant from E. coli BL21(DE3), pQElac vector (pLS504), purified on His-Spin column (His-tag implied); FAD added at lysis
On to B1, for which, in “purified protein [1]”, the Km is 1900 ± 40 µM, the kcat stood at 31 ± 1 s⁻¹ and the kcat/Km worked out at 17000 ± 200 M⁻¹ s⁻¹. In “purified protein [2]”, the Km was found to be 1100 ± 100 µM, the kcat amounted to 28 ± 1 s⁻¹ and the kcat/Km stood at 26000 ± 1000 M⁻¹ s⁻¹.

B2: Lp Nox (Lactiplantibacillus pentosus; D177W/I158S/V240L) (protein)
chain: MKVIVIGCTHAGTAAVNQILASNPETDVTIYERNDNVSFLSCGIALYLGGEVADPQGLFYSSPEQLAKLGANVHMQHDVTDVDTENHEITVTDLKTGESKKDYYDKLVVTTGSWPVIPPIDGIDSPNVYLCKNWTHAQSLWEAAKPAKRVIVIGGGYSGTELVEAYQKQGKEVTLIWGLPRILNKYLDKGFTDRVEKDFVDHGIKMALNQMVKGFSDDGKEVTVKTDKGSYTADMAILCLGFRPNTSLLKGKVDMNPNGSIKTNDYMQTSDPDIYGAGDSVAVHYNPTKKDAYIPLATNAVRQGTLVGLNIFKPTRKYMGTQSTSGLMLFGKTIVSSGMTLEHAQAEKVPAEAVTFEDNYRPEFMPTTKPVLMQLVYNPETREILGAQFMSEHDVSQSANVISVMIQNHNTIDDLGFVDMFFQPIYDRPFNYLNLLGQAAIAHAAEKVTE
notes: as for B1
B2: in the data set “purified protein [1]”, the Km stood at 1700 ± 200 µM, the kcat was 47 ± 4 s⁻¹ and the kcat/Km is 28000 ± 1000 M⁻¹ s⁻¹. Moreover, in the data set “purified protein [2]”, the Km was 890 ± 40 µM, the kcat worked out at 27 ± 2 s⁻¹ and the kcat/Km came to 31000 ± 1000 M⁻¹ s⁻¹.

B3: Lp Nox (Lactiplantibacillus pentosus) (protein)
chain: MKVIVIGCTHAGTAAVNQILASNPETDVTIYERNDNVSFLSCGIALYLGGEVADPQGLFYSSPEQLAKLGANVHMQHDVTDVDTENHEITVTDLKTGESKKDYYDKLVVTTGSWPVIPPIDGIDSPNVYLCKNWTHAQSLWEAAKPAKRVIVIGGGYIGTELVEAYQKQGKEVTLIDGLPRILNKYLDKGFTDRVEKDFVDHGIKMALNQMVKGFSDDGKEVTVKTDKGSYTADMAILCVGFRPNTSLLKGKVDMNPNGSIKTNDYMQTSDPDIYGAGDSVAVHYNPTKKDAYIPLATNAVRQGTLVGLNIFKPTRKYMGTQSTSGLMLFGKTIVSSGMTLEHAQAEKVPAEAVTFEDNYRPEFMPTTKPVLMQLVYNPETREILGAQFMSEHDVSQSANVISVMIQNHNTIDDLGFVDMFFQPIYDRPFNYLNLLGQAAIAHAAEKVTE
notes: as for B1
As to B3, in “purified protein [1]”, the Km stood at 25 ± 1 µM, the kcat was determined as 21 ± 0.3 s⁻¹ and the kcat/Km was found to be 840000 ± 10000 M⁻¹ s⁻¹. Further, in the data set “purified protein [2]”, the Km stood at 1900 ± 200 µM, the kcat amounted to 18 ± 2 s⁻¹ and the kcat/Km is 9300 ± 200 M⁻¹ s⁻¹.

In general, Km refers to the concentration of substrate that gives half-maximal velocity. The kcat is the number of substrate molecules converted per active site and unit of time at saturation. In general, kcat/Km refers to the second-order rate constant that governs catalysis at low substrate concentration.
